Four molecules from US20180016354A1 (Merck KGaA, published 2018) can be followed below.

Some results are limits rather than exact numbers.

The EC50 is the concentration that produces a half-maximal response. A low value points to greater potency. As usually defined, the IC50 is the concentration at which inhibition is half-maximal. A high value points to weaker potency in that assay.

The target of test [1] is T1, EGFR (on EGFR-expressing A431 cells) (UniProt P00533 25-1210, limits assumed). The test can be described thus: cell-based or functional assay.
Test [2] has as its target CD3 (on activated primary T cells) (UniProt P07766 23-207). Briefly: cell-based or functional assay.
The target of test [3] is T1, EGFR (on EGFR-expressing A431 cells). Briefly: flow cytometry on A431 cells. A general note: In flow cytometry, cells or beads pass a laser one at a time.
For test [4], the target named is T2, CD16a receptor (FcγIIIa) (UniProt P08637 17-254, limits assumed).
T2 construct: whole, on cells
T2 sequence (P08637 17-254 limits assumed): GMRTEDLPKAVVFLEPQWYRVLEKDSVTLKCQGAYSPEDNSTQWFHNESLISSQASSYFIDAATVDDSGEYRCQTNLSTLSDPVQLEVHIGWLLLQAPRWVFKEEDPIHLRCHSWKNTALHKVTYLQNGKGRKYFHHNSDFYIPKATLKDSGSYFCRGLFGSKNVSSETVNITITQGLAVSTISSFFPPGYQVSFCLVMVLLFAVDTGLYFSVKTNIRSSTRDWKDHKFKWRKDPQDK
The test can be described thus: CD16a HTRF cellular binding assay (CisBio), competition with labeled human IgG. The method, then:
(§1) FIG. 14: Binding of antibodies to CD16a receptor. Binding was measured using CD16a HTRF cellular binding assay (CisBio). Measurement was performed in duplicates.
Background: Time-resolved FRET reads energy transfer from a long-lived donor to a nearby acceptor.

Test [5] deals with T2, CD16a receptor (FcγIIIa). The test can be described thus: cell-based or functional assay.
Test [6] concerns the target T2, CD16a receptor (FcγIIIa). Briefly: CD16a HTRF cellular binding assay, competition with labeled human IgG. The method, then: as §1

B1: domain-exchanged heterodimeric bispecific antibody 1, BsAb1 (anti-CD3× anti-EGFR CH3-KiH) (bispecific antibody, human IgG1, kappa)
heavy 1: QVQLVQSGAEVKKPGASVKVSCKASGYTFTSHWMHWVRQAPGQGLEWIGEFNPSNGRTNYNEKFKSKATMTVDTSTNTAYMELSSLRSEDTAVYYCASRDYDYDGRYFDYWGQGTLVTVSSASTKGEPQVYTLPPSRDELTKNQVSLYCLVKGFYPSDIAVEWESNGQPENNYKTTPPVLDSDGSFFLYSKLTVDKSRWQQGNVFSCSVMHEALHNHYTQKSLSLSKSCDKTHTCPPCPAPELLGGPSVFLFPPKPKDTLMISRTPEVTCVVVDVSHEDPEVKFNWYVDGVEVHNAKTKPREEQYNSTYRVVSVLTVLHQDWLNGKEYKCKVSNKALPAPIEKTISKAKGQPFRPEVHLLPPSREEMTKNQVSLTCLARGFYPKDIAVEWESNGQPENNYKTTPSRQEPSQGTTTFAVTSKLTVDKSRWQQGNVFSCSVMHEALHNHYTQKTISLSPGK
heavy 2: QVQLVQSGGGVVQPGRSLRLSCKASGYTFTRYTMHWVRQAPGKGLEWIGYINPSRGYTNYNQKVKDRFTISRDNSKNTAFLQMDSLRPEDTGVYFCARYYDDHYCLDYWGQGTPVTVSSASTKGPSVFPLAPSSKSTSGGTAALGCLVKDYFPEPVTVSWNSGALTSGVHTFPAVLQSSGLYSLSSVVTVPSSSLGTQTYICNVNHKPSNTKVDKKVEPKSCDKTHTCPPCPAPELLGGPSVFLFPPKPKDTLMISRTPEVTCVVVDVSHEDPEVKFNWYVDGVEVHNAKTKPREEQYNSTYRVVSVLTVLHQDWLNGKEYKCKVSNKALPAPIEKTISKAKGQPREPQVYTLPPPSEELALNELVTLTCLVKGFYPSDIAVEWLQGSQELPREKYLTWAPVLDSDGSFFLYSILRVAAEDWKKGDTFSCSVMHEALHNHYTQKSLDRSPGK
light 1: DIQMTQSPSSLSASVGDRVTITCSASSSVTYMYWYQQKPGKAPKLLIYDTSNLASGVPSRFSGSGSGTDYTFTISSLQPEDIATYYCQQWSSHIFTFGQGTKVEIKRTVAEPQVYTLPPSRDELTKNQVSLTCLVKGFYPSDIAVEWESNGQPENNYKTTPPVLDSDGSFFLTSKLTVDKSRWQQGNVFSCSVMHEALHNHYTQKSLSLSGEC
light 2: DIQMTQSPSSLSASVGDRVTITCSASSSVSYMNWYQQTPGKAPKRWIYDTSKLASGVPSRFSGSGSGTDYTFTISSLQPEDIATYYCQQWSSNPFTFGQGTKLQITRTVAAPSVFIFPPSDEQLKSGTASVVCLLNNFYPREAKVQWKVDNALQSGNSQESVTEQDSKDSTYSLSSTLTLSKADYEKHKVYACEVTHQGLSSPVTKSFNRGEC
notes: hu425 (Matuzumab) Fv in the CH3 domain-exchanged Fab arm, OKT3 Fv in the native Fab arm; SEED AG/GA Fc; also called domain-exchanged heterodimeric antibody 1; domain-exchanged bispecific antibody 1
B1: the “EC50 of redirected lysis of A431 cells by activated T cells (LDH release)” value in test [1] and in test [2] was 0.1 to 0.3 nM each time. In test [3], the 50% effective concentration (EC50) is approximately 7 nM.

B2: One-armed Effector Negative (EN) domain-exchanged anti-EGFR antibody (antibody)
heavy: QVQLVQSGAEVKKPGASVKVSCKASGYTFTSHWMHWVRQAPGQGLEWIGEFNPSNGRTNYNEKFKSKATMTVDTSTNTAYMELSSLRSEDTAVYYCASRDYDYDGRYFDYWGQGTLVTVSSASTKGEPQVYTLPPSRDELTKNQVSLYCLVKGFYPSDIAVEWESNGQPENNYKTTPPVLDSDGSFFLYSKLTVDKSRWQQGNVFSCSVMHEALHNHYTQKSLSLSKSCDKTHTCPPCPAPPVAGPSVFLFPPKPKDTLMISRTPEVTCVVVDVSHEDPEVQFNWYVDGVEVHNAKTKPREEQAQSTFRVVSVLTVVHQDWLNGKEYKCKVSNKGLPAPIEKTISKTKGQPFRPEVHLLPPSREEMTKNQVSLTCLARGFYPKDIAVEWESNGQPENNYKTTPSRQEPSQGTTTFAVTSKLTVDKSRWQQGNVFSCSVMHEALHNHYTQKTISLSPGK
chain: EPKSSDKTHTCPPCPAPPVAGPSVFLFPPKPKDTLMISRTPEVTCVVVDVSHEDPEVQFNWYVDGVEVHNAKTKPREEQAQSTFRVVSVLTVVHQDWLNGKEYKCKVSNKGLPAPIEKTISKTKGQPREPQVYTLPPPSEELALNELVTLTCLVKGFYPSDIAVEWLQGSQELPREKYLTWAPVLDSDGSFFLYSILRVAAEDWKKGDTFSCSVMHEALHNHYTQKSLDRSPGK
light: DIQMTQSPSSLSASVGDRVTITCSASSSVTYMYWYQQKPGKAPKLLIYDTSNLASGVPSRFSGSGSGTDYTFTISSLQPEDIATYYCQQWSSHIFTFGQGTKVEIKRTVAEPQVYTLPPSRDELTKNQVSLTCLVKGFYPSDIAVEWESNGQPENNYKTTPPVLDSDGSFFLTSKLTVDKSRWQQGNVFSCSVMHEALHNHYTQKSLSLSGEC
notes: One Fab arm only; effector negative Fc (modified IgG2 CH2 F296A, N297Q); also called one-armed domain-exchanged EN anti-EGFR antibody; one-armed effector negative anti-EGFR antibody
Consider B2, for which the binding result with CD16a receptor (FcγIIIa) [4] is “no binding”.

B3: Effector Negative (EN) isotype domain-exchanged bispecific antibody BsAb2 (anti-CD16× anti-EGFR CH3-KiH), BsAb2 EN (bispecific antibody, human IgG1, kappa)
heavy 1: QVQLVQSGAEVKKPGASVKVSCKASGYTFTSHWMHWVRQAPGQGLEWIGEFNPSNGRTNYNEKFKSKATMTVDTSTNTAYMELSSLRSEDTAVYYCASRDYDYDGRYFDYWGQGTLVTVSSASTKGEPQVYTLPPSRDELTKNQVSLYCLVKGFYPSDIAVEWESNGQPENNYKTTPPVLDSDGSFFLYSKLTVDKSRWQQGNVFSCSVMHEALHNHYTQKSLSLSKSCDKTHTCPPCPAPPVAGPSVFLFPPKPKDTLMISRTPEVTCVVVDVSHEDPEVQFNWYVDGVEVHNAKTKPREEQAQSTFRVVSVLTVVHQDWLNGKEYKCKVSNKGLPAPIEKTISKTKGQPFRPEVHLLPPSREEMTKNQVSLTCLARGFYPKDIAVEWESNGQPENNYKTTPSRQEPSQGTTTFAVTSKLTVDKSRWQQGNVFSCSVMHEALHNHYTQKTISLSPGK
heavy 2: not shown
light 1: DIQMTQSPSSLSASVGDRVTITCSASSSVTYMYWYQQKPGKAPKLLIYDTSNLASGVPSRFSGSGSGTDYTFTISSLQPEDIATYYCQQWSSHIFTFGQGTKVEIKRTVAEPQVYTLPPSRDELTKNQVSLTCLVKGFYPSDIAVEWESNGQPENNYKTTPPVLDSDGSFFLTSKLTVDKSRWQQGNVFSCSVMHEALHNHYTQKSLSLSGEC
light 2: not shown
notes: also called EN BsAb2; effector negative IgG2 variant of BsAb2
B3: in test [1], the “EC50 of lysis of A431 cells by redirected NK cells (LDH release)” value (from here on “EC50 of lysis of A431 cells”) came to 0.037 nM and the “lysis of A431 cells by redirected NK cells (LDH release)” value is not above 50%. Further, in the test with CD16a receptor (FcγIIIa) [5], the “EC50 of lysis of A431 cells” value was determined as 0.037 nM and the “lysis of A431 cells by redirected NK cells (LDH release)” value was not above 50%. In addition, the IC50 with CD16a receptor (FcγIIIa) [6] was approximately 3.6 nM.

B4: domain-exchanged bispecific antibody 2, BsAb2 (anti-CD16× anti-EGFR CH3-KiH) (bispecific antibody, human IgG1, kappa)
heavy 1: QVQLVQSGAEVKKPGASVKVSCKASGYTFTSHWMHWVRQAPGQGLEWIGEFNPSNGRTNYNEKFKSKATMTVDTSTNTAYMELSSLRSEDTAVYYCASRDYDYDGRYFDYWGQGTLVTVSSASTKGEPQVYTLPPSRDELTKNQVSLYCLVKGFYPSDIAVEWESNGQPENNYKTTPPVLDSDGSFFLYSKLTVDKSRWQQGNVFSCSVMHEALHNHYTQKSLSLSKSCDKTHTCPPCPAPELLGGPSVFLFPPKPKDTLMISRTPEVTCVVVDVSHEDPEVKFNWYVDGVEVHNAKTKPREEQYNSTYRVVSVLTVLHQDWLNGKEYKCKVSNKALPAPIEKTISKAKGQPFRPEVHLLPPSREEMTKNQVSLTCLARGFYPKDIAVEWESNGQPENNYKTTPSRQEPSQGTTTFAVTSKLTVDKSRWQQGNVFSCSVMHEALHNHYTQKTISLSPGK
heavy 2: not shown
light 1: DIQMTQSPSSLSASVGDRVTITCSASSSVTYMYWYQQKPGKAPKLLIYDTSNLASGVPSRFSGSGSGTDYTFTISSLQPEDIATYYCQQWSSHIFTFGQGTKVEIKRTVAEPQVYTLPPSRDELTKNQVSLTCLVKGFYPSDIAVEWESNGQPENNYKTTPPVLDSDGSFFLTSKLTVDKSRWQQGNVFSCSVMHEALHNHYTQKSLSLSGEC
light 2: not shown
notes: hu425 Fv in the domain-exchanged Fab arm, murine 3G8 (anti-CD16) Fv in the native Fab arm; also called effector positive BsAb2 variant
B4: in test [1], the “EC50 of lysis of A431 cells” value worked out at 0.01 nM and the “lysis of A431 cells by redirected NK cells (LDH release)” value was not above 50%. For the same molecule, in the test with CD16a receptor (FcγIIIa) [5], the “EC50 of lysis of A431 cells” value stood at 0.01 nM and the “lysis of A431 cells by redirected NK cells (LDH release)” value was not above 50%. Moreover, the half-inhibitory concentration (IC50) in the test with CD16a receptor (FcγIIIa) [6] is approximately 0.3 nM.
